In patent US20240376213A1 (YEDA RESEARCH AND DEVELOPMENT, published 2024):

Assays:
[1] = biological target: T1, recombinant extracellular domain of mouse PD-1 (Sino Biological) (mouse, UniProt Q02242 25-169); experiment: binding ELISA titration on recombinant protein (FIG. 3A)
T1 construct: extracellular domain; Coated on ELISA plates at 1 ug/mL; also called mPD-1; recombinant mouse PD-1
T1 sequence (looked up): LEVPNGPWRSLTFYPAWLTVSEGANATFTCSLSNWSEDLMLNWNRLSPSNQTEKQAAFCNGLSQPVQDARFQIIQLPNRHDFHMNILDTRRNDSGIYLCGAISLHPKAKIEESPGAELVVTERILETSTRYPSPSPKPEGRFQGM

[2] = biological target: T2, mouse CLEC9A on cells (HEK293 cells stably overexpressing mCLEC9A; cDC1 among mouse splenocytes) (mouse, UniProt Q8BRU4 1-238); experiment: dual-binding FACS doublet assay, 1:1 mix of CFSE/CellTrace-stained HEK293 cells expressing each target (FIG. 4A)
T2 construct: whole, on cells
T2 sequence (looked up): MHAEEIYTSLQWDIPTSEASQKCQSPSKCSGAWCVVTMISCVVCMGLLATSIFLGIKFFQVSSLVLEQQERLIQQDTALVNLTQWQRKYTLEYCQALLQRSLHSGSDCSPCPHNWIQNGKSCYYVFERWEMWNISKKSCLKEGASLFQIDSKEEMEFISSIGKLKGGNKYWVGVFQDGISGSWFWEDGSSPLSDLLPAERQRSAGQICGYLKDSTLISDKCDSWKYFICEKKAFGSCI

[3] = biological target: T3, mouse PD-1 on cells (HEK293 cells stably overexpressing mPD-1; PD-1+ CD8+ OT-1 T cells) (mouse, UniProt Q02242 25-288); experiment: as above
T3 construct: whole, on cells; also called HEK293-mPD-1
T3 sequence (looked up): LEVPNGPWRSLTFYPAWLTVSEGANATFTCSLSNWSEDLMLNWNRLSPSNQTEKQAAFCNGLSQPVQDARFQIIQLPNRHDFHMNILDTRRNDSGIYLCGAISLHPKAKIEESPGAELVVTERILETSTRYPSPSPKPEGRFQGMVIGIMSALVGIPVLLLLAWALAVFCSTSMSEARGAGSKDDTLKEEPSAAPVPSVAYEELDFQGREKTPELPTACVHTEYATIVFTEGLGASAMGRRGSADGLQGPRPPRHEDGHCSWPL

[4] = biological target: T1, recombinant extracellular domain of …; experiment: ELISA on recombinant mouse PD-1 (FIG. 3A)
[5] = biological target: T4, mouse XCR1 on cells (HEK293 cells stably overexpressing mXCR1; cDC1 among mouse splenocytes) (mouse, UniProt Q9R0M1 1-322); experiment: FACS binding titration on HEK293-mXCR1 cells (FIG. 3B)
T4 construct: whole, on cells
T4 sequence (looked up): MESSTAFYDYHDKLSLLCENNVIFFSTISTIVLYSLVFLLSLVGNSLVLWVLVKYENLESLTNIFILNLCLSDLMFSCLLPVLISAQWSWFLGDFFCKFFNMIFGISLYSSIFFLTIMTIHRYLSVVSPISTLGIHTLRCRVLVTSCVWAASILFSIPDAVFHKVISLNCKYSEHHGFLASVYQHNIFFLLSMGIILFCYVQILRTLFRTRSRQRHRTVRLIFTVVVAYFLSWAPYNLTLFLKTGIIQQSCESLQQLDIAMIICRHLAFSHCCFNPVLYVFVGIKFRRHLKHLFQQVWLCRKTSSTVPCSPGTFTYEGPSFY

Measured: binding result

B1: PD-1/CLEC9A BiSE (bispecific immune synapse engager; anti-mouse PD-1 clone RMP1-14 arm x anti-mouse CLEC9A clone 10B4 arm) (bispecific antibody)
heavy 1: not shown
light 1: DIVMTQGTLPNPVPSGESVSITCRSSKSLLYSDGKTYLNWYLQRPGQSPQLLIYWMSTRASGVSDRFSGSGSGTDFTLKISGVEAEDVGIYYCQQGLEFPTFGGGTKLELERTVAAPSVFIFPPSDEQLKSGTASVVCLLNNFYPREAKVQWKVDNALQSGNSQESVTEQDSKDSTYSLSSTLTLSKADYEKHKVYACEVTHQGLSSPVTKSFNRGEC
heavy 2: QIVESGGGLVQPKESLKISCTASGFTFSNAAIYWVRQTPGKGLEWVGRIRTRPSKYATDYADSVRGRFTISRDDSKSMVYLQMDNLRTEDTAMYYCTPRATEDVPFYWGQGVMVTVSSASVAAPSVFIFPPSDEQLKSGTASVVCLLNNFYPREAKVQWKVDNALQSGNSQESVTEQDSKDSTYSLSSTLTLSKADYEKHKVYACEVTHQGLSSPVTKSFNRGECDRSEPKSCDKTHTCPPCPAPELLGGPSVFLFPPKPKDTLMISRTPEVTCVVVDVSHEDPEVKFNWYVDGVEVHNAKTKPREEQYASTYRVVSVLTVLHQDWLNGKEYKCKVSNKALPAPIEKTISKAKGQPREPQVCTLPPSREEMTKNQVSLSCAVKGFYPSDIAVEWESNGQPENNYKTTPPVLDSDGSFFLVSKLTVDKSRWQQGNVFSCSVMHEALHNHYTQKSLSLSPGKSAWSHPQFEK
light 2: DIVMTQTPSSQAVSAGEKVTMNCKSSQSVLYDENKKNYLAWYQQKSGQSPKLLIYWASTGESGVPDRFIGSGSGTDFTLTISSVQAEDLAVYYCQQYYDFPPTFGGGTKLELKSSASTKGPSVFPLAPSSKSTSGGTAALGCLVKDYFPEPVTVSWNSGALTSGVHTFPAVLQSSGLYSLSSVVTVPSSSLGTQTYICNVNHKPSNTKVDKKVEPKSC
notes: Knobs-into-holes, CrossMab (CH1-CL swap on the DC arm), Fc N297A, human IgG1/kappa backbone; copies: 1 + 1 + 1 + 1
binds: [1] | [2] | [3]

B2: PD-1/XCR1 BiSE (bispecific immune synapse engager; anti-mouse PD-1 clone RMP1-14 arm x anti-mouse XCR1 clone MARX10 arm) (bispecific antibody)
heavy 1: not shown
light 1: B1 light 1
heavy 2: QVQLQQPGAELVKPGASVKLSCKASGYTFTNYWIHWMKQRPGQGLEWIGMIHPNSDNTKYNEKFKAKAILTVDKSSSTAYMQLSSLTSEDSAVYYCARFANDGAYWGQGTLVTVSSASVAAPSVFIFPPSDEQLKSGTASVVCLLNNFYPREAKVQWKVDNALQSGNSQESVTEQDSKDSTYSLSSTLTLSKADYEKHKVYACEVTHQGLSSPVTKSFNRGECDRSEPKSCDKTHTCPPCPAPELLGGPSVFLFPPKPKDTLMISRTPEVTCVVVDVSHEDPEVKFNWYVDGVEVHNAKTKPREEQYASTYRVVSVLTVLHQDWLNGKEYKCKVSNKALPAPIEKTISKAKGQPREPQVCTLPPSREEMTKNQVSLSCAVKGFYPSDIAVEWESNGQPENNYKTTPPVLDSDGSFFLVSKLTVDKSRWQQGNVFSCSVMHEALHNHYTQKSLSLSPGKSAWSHPQFEK
light 2: DVVVTQTPLSLPVSLGDPASISCKSSQSLVHSNGNTYLHWYLQKPGQSPKLLIYKISNRFSGVPDRFSGSGSGTDFTLKISRVEAEDLGVYFCSQNTHVPYTFGGGTKLEIKSSASTKGPSVFPLAPSSKSTSGGTAALGCLVKDYFPEPVTVSWNSGALTSGVHTFPAVLQSSGLYSLSSVVTVPSSSLGTQTYICNVNHKPSNTKVDKKVEPKSC
notes: as for B1
binds: [4] | [5] | [3]
